Reference: article PMC9878616

Target: N-terminal GST-like domain of P. berghei glutamyl-tRNA synthetase (ERS-N) (P. berghei)
Assay: SEC-SAXS

Substance: N-terminal GST-like domain of P. berghei glutamyl-tRNA synthetase (ERS-N) (from UniProt A0A509AR09 1-240) (domain or fragment)
- percent of dimers (OLIGOMER fit): 77.9%
- percent of tetramers (OLIGOMER fit): 22.1%
